The results in this text go back to patent US20070248589A1 (GOVERNMENT OF THE UNITED STATES OF AMERICA AS REPRESENTED …, published 2007).

One experiment deals with lymphoid cells. Description: Thymocyte depletion of fetal thymic organ culture (FTOC). In kind it is cell-based, mouse. Particulars: after 14 days, flow cytometric analysis. The text has this: SPATIAL expression cannot be detected in thymocytes using RT-PCR on RNA obtained from highly purified CD45+ thymocytes prepared by flow cytometer sorting from normal mice. Actin and cyclophilin mRNA was readily detected using the same RNA samples. To examine SPATIAL expression in stromal cells, thymii from day 14 mouse fetuses were harvested and cultured in fetal thymic organ culture (FTOC). The FTOC was specifically depleted of thymocytes using 2-deoxyguanosine treatment 2-deoxyguanosine is a nucleotide analog that is toxic to thymocytes. […] These cultures can be re-colonized by stem cells and are fully capable of supporting thymopoiesis (Hare et al., Semin. Immunol., 11(1):3-12, 1999). Using RT-PCR, it was shown that SPATIAL is abundantly expressed in thymic stromal cells obtained from FTOC (Flomerfelt et al., Genes and Immunity, 1:391-401, 2000).
(In general: Flow cytometry measures light scatter and fluorescence of single cells or particles in a stream.)

The subject of the next experiment is Hb12 cells. Nature of the experiment: Bcl-2 expression assay, SPATIAL-EGFP transfected Bcl-2 expressing thymocyte cell line. In kind it is cell-based, mouse. Particulars: Bcl-2 expression, FIG. 17B. Here is the method:
The mouse thymocyte cell line Wehi 7.2 and its variant Wbcl-2, which over expresses bcl-2, were maintained in DMEM supplemented with 10% heat-inactivated FBS, 2 mM glutamine, 100 U/ml penicillin, and 0.1 mg/ml streptomycin. Cells were grown at 37° C. in a humidified atmosphere with 5% CO2.
Transient transfections were performed using either lipids (Lipofectamine 2000 or FreeStyle 293 Expression System, each supplied by Invitrogen, Rockville, Md.) or calcium phosphate (Mammalian Transfection Kit; Stratagene, La Jolla, Calif.) or electroporation. Manufacturer instructions were followed for lipid and calcium phosphate transfections. For electroporation, the following procedure was used: Before transfection, Wehi cell and Wbcl-2 cells were counted and suspended in fresh complete DMEM without antibiotics at 5×10^5 cells/ml in a 15 cm dish. On the day of transfection, the cells were washed with PBS twice and were suspended in serum free DMEM at 6.25×10^6 cells/mL Aliquots of 800 μl cell suspension were transferred to a 4 mm electroporation cuvette and 10 μg of plasmid DNA solution was added. After 10 minutes incubation on ice, the cells were electroporated under the condition of 310 V, 725 ohms resistance, and 1050 μF capacitance. The transfected cells were incubated on ice for 10 minutes and suspended in complete DMEM in 10 cm dishes at the density of 7.5×10^4 viable cells/ml. […]

In another experiment the target is T1, GST-SPATIAL(L) (Mus musculus, UniProt Q7TSD4).
T1 construct: made in house
T1 sequence (Q7TSD4 with tags, fused parts or gaps isoform Q7TSD4-6 limits assumed): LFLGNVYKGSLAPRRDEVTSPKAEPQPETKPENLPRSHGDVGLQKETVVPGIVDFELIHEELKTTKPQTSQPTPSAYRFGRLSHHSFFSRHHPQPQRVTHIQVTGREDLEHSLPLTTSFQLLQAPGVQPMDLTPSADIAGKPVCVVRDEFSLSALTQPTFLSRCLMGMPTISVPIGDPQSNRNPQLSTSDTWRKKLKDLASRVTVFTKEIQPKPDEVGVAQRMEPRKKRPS
Nature of the experiment: GST pulldown assay with GST-SPATIAL long isoform. In kind it is binding. Particulars: 35S-methionine labeled in vitro translated protein. How it is done:
(§1) Eighteen cDNA clones identified in the yeast two-hybrid system were tested in an in vitro glutathione-S-transferase (GST) pulldown assay, as described in Ausubel et al., Current Protocols in Molecular Biology, Greene Publishing Associates, updated November 2003, Chapter 20, Analysis of Protein Interactions, Unit 20.2, Affinity Purification of Proteins Binding to GST Fusion Proteins.
(§2) Briefly, a GST-SPATIAL fusion construct was produced by cloning SPATIAL cDNA(s) into pGEx5X1 expression vector using standard molecular cloning techniques. GST or GST-SPATIAL fusion protein were expressed in 1-1000 ml bacterial cultures grown for 3-4 hours until OD600 reached 0.5. Then, plasmid expression was induced for 1.5-4 hours by the addition of ITPG to a final concentration of 0.11 mM. GST or GST-fusion proteins were purified using glutathione-Sepharose beads as described in Ausubel et al., Current Protocols in Molecular Biology, Greene Publishing Associates, updated November 2003, Chapter 20, Analysis of Protein Interactions, Unit 20.2, Affinity Purification of Proteins Binding to GST Fusion Proteins.
(§3) A coupled in vitro transcription and translation system (Promega) was used according to the manufacturer's instructions to produce radiolabeled protein from cDNAs to be tested. Radiolabeled proteins were mixed with either purified GST or GST-SPATIAL. Then, GST-containing protein complexes were purified by centrifugation from the reaction mixtures using glutathione-coated Sepharose beads. Bound proteins were eluted from the beads with SDS-PAGE loading buffer heated to 72-85° C., separated on polyacrylamide gels, and visualized by autoradiography. Specific interactions between GST-SPATIAL and in vitro translated proteins were indicated by the presence of a radiolabeled in vitro translated protein in the GST-SPATIAL-containing samples, but not in the GST-alone samples.
(§4) GST pulldown assays were performed as described in Example 9 using GST-SPATIAL(L) and GST-SPATIAL(S) and each of the Uba3 mutants described in this example.

For a further experiment, the target named is T2, GST-SPATIAL(S) (Mus musculus, UniProt Q7TSD4).
T2 construct: made in house
T2 sequence (Q7TSD4 with tags, fused parts or gaps isoform Q7TSD4-7 limits assumed): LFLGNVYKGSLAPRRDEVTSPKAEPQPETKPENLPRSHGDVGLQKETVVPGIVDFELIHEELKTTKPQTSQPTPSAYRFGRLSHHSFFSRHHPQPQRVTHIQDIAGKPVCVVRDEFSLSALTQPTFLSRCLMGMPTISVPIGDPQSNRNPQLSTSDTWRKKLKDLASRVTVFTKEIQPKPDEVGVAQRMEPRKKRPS
Description: GST pulldown assay with GST-SPATIAL short isoform. In kind it is binding. The settings on record: 35S-methionine labeled in vitro translated protein. Here is the method:
as §1, §2, §3, §4

The target in experiment [1] is T3, Uba3 deletion mutant Delta364-912 (mouse, UniProt Q8C878 22-462, 35S-methionine labeled).
T3 construct: Amino acids 109-291 are deleted (PstI fragment removed); also called PstI digest
Description: GST pulldown of 35S-labelled in vitro translated Uba3 mutant. How it is done:
as §3, §4

On to `Nc1nc2c(ncn2[C@H]2C[C@H](O)[C@@H](CO)O2)c(=O)[nH]1` [2-deoxyguanosine], for which the lymphoid cells depleted entry in the experiment on lymphoid cells is recorded as “greater than 98%”.
Regarding “Bcl-2: human Bcl-2 gene expressed in Hb12 cells, inhibits apoptosis”, the “reversal of growth suppressive effect of SPATIAL-EGFP transfection” value in the experiment on Hb12 cells is “ineffective to reverse the growth suppressive effect”.
Take “Delta364-912: Uba3 deletion mutant, amino acid deletion 109-291 (PstI digest)”: the “interaction with GST-SPATIAL(L)” value in the experiment with GST-SPATIAL(L) is “does not interact”. In addition, the “interaction with GST-SPATIAL(S)” value in the experiment with GST-SPATIAL(S) is listed as “does not interact”.

B1: Delta941-1365: Uba3 deletion mutant, amino acid deletion 301-441 (protein)
chain: MAVDGGCGDTGDWEGRWNHVKKFLERSGPFTHPDFEPSTESLQFLLDTCKVLVIGAGGLGCELLKNLALSGFRQIHVIDMDTIDVSNLNRQFLFRPKDVGRPKAEVAAEFLNDRVPNCNVVPHFNKIQDFNDTFYRQFHIIVCGLDSIIARRWINGMLISLLNYEDGVLDPSSIVPLIDGGTEGFKGNARVILPGMTACIECTLELYPPQVNFPMCTIASMPRLPEHCIEYVRMLQWPKEQPFGDGVPLDGDDPEHIQWIFQKSIERASQYNIRGVTYRLTQGVVKRIIPAVASTNAVIA
For B1, the “interaction with GST-SPATIAL(L)” value with GST-SPATIAL(L) is on record as “interact”. Moreover, the “interaction with GST-SPATIAL(S)” value with GST-SPATIAL(S) is “interact”.

B2: GST-SPATIAL short isoform fusion protein (other)
chain: LFLGNVYKGSLAPRRDEVTSPKAEPQPETKPENLPRSHGDVGLQKETVVPGIVDFELIHEELKTTKPQTSQPTPSAYRFGRLSHHSFFSRHHPQPQRVTHIQDIAGKPVCVVRDEFSLSALTQPTFLSRCLMGMPTISVPIGDPQSNRNPQLSTSDTWRKKLKDLASRVTVFTKEIQPKPDEVGVAQRMEPRKKRPS
notes: SPATIAL cDNA cloned into pGEx5X1, expressed in bacteria and held on glutathione-Sepharose beads; not shown: glutathione-S-transferase (GST) encoded by the pGEx5X1 expression vector
On to B2, for which, in experiment [1], the binding result is recorded as “no binding”.

B3: GST-SPATIAL long isoform fusion protein (other)
chain: LFLGNVYKGSLAPRRDEVTSPKAEPQPETKPENLPRSHGDVGLQKETVVPGIVDFELIHEELKTTKPQTSQPTPSAYRFGRLSHHSFFSRHHPQPQRVTHIQVTGREDLEHSLPLTTSFQLLQAPGVQPMDLTPSADIAGKPVCVVRDEFSLSALTQPTFLSRCLMGMPTISVPIGDPQSNRNPQLSTSDTWRKKLKDLASRVTVFTKEIQPKPDEVGVAQRMEPRKKRPS
notes: as for B2
Consider B3, for which the binding result in experiment [1] is recorded as “no binding”.

B4: Delta24-646: Uba3 deletion mutant, amino acid deletion 1-202 (protein)
chain: TLELYPPQVNFPMCTIASMPRLPEHCIEYVRMLQWPKEQPFGDGVPLDGDDPEHIQWIFQKSIERASQYNIRGVTYRLTQGVVKRIIPAVASTNAVIAAVCATEVFKIATSAYIPLNNYLVFNDVDGLYTYTFEAERKENCPACSQLPQNIQFSPSAKLQEVLDYLTNSASLQMKSPAITATLEGKNRTLYLQSVTSIEERTRPNLSKTLKELGLVDGQELAVADVTTPQTVLFKLHFT
Regarding B4, the “interaction with GST-SPATIAL(L)” value in the experiment with GST-SPATIAL(L) is on record as “interact”. For the same molecule, the “interaction with GST-SPATIAL(S)” value with GST-SPATIAL(S) is recorded as “interact”.
